# PMC11053944, “FRET Assays for the Identification of C. albicans HSP90-Sba1 and Human HSP90α-p23 Binding Inhibitors” (Pharmaceuticals, 2024)
# Tests used:
# [1] = system: human HSP90α; design: method as in PMID 16403413; settings: cited from earlier work
# [2] = target: T1, human HSP90α–p23 binding (Homo sapiens, UniProt P07900); experiment: FRET inhibitor screening assay, human HSP90α-p23 binding; settings: 10 or 100 µM, triplicates, 3 mM ATP, 1% DMSO, 15 min 37 °C
# T1 construct: made in house; host or cells: E. coli Rosetta2(DE3) pLysS
# From the text: We used the Z′ factor (Z′) to optimize the FRET assays for screening purposes. Z′ represents a simple statistical parameter for the quality assessment and optimization of HTS assays and screening assays in general. It is a measure that determines the degree of signal separation between binding and non-binding data sets. Calculation of the Z′ factor is based on the standard deviation of the individual data sets as well as their general signal separation. Values ≥ 0.5 can be classified as excellent for screening purposes. […] When the fluorescent fusion proteins of HSP90 and co-chaperones bind to each other, FRET occurs between donor and acceptor fluorophores, and the sensitized emission (EmFRET) signal increases. Consequently, the fluorescence intensity of the donor decreases (FLDD). […] We defined the ‘hit threshold’ as a decrease in readout signal of more than 3 standard deviations (SDs) from the mean signal of the binding control. This constitutes a common threshold for hit identification in HTS campaigns.
# The excitation and emission bandwidths were set to 9 and 20 nm, respectively. Experiments for the determination of the equilibrium dissociation constants were performed with a filter-based microplate reader Infinite F200Pro (Tecan, Männedorf, Switzerland). […] The correction factors x and y were calculated as follows:(2) x=FLDA/FLDD for samples containing only the donor fluorophore or fluorescent fusion proteins with mNeonGreen and (3) y=FLDA/FLAA for samples containing only the acceptor fluorophore or fluorescent fusion proteins with mScarlet-I in the same concentration as samples containing both the donor and acceptor.
# For screening for the identification of ATP-competitive C. albicans HSP90 and HSP90-Sba1 binding inhibitors, 10 µL of HSP90-mNeonGreen (2 µM) and Sba1-mScarlet-I (4 µM) in HEPES buffer (40 mM HEPES/KOH pH 7.5, 20 mM KCl) was mixed with 10 µL of 200 µM compound solution in 2x reaction buffer (40 mM HEPES/KOH pH 7.5, 20 mM KCl, 10 mM MgCl2, 40 mM Na2MoO4, Triton-X 100 0.2%), 6 mM ATP, 2% DMSO, resulting ultimately in constant HSP90-mNeonGreen concentrations of 1 µM and Sba1-mScarlet-I 2 µM in reaction buffer. Samples for binding control (3 mM ATP, final concentration) and non-binding control (no ATP) were prepared in the same manner without compounds. The samples were incubated for 15 min at 30 °C prior to measurement. The assay for the human HSP90α–p23 binding inhibitor identification was performed analogously, with the exception that samples were incubated for 15 min at 37 °C prior to measurement. Since binding samples show both a high EmFRET as well as a reduction in donor emission (FLDD), we calculated the quotient (EmFRET/FLDD) to derive an improved signal separation and robustness. The nucleoside-mimetics library was obtained from Enamine (catalog No. NML-320-X-20, Enamine Ltd., Kyiv, Ukraine). Z′ and Z factors were calculated based on Zhang et al..
# [3] = target: human HSP90β; design: method as in PMID 16403413; settings: read-out: Kd of human HSP90β–p23 complex; cited from earlier work
# [4] = target: T2, human HSP90α-mNeonGreen–p23-mScarlet-I binding (Homo sapiens, UniProt P07900, E47A); experiment: FRET characterization of model inhibitors and ATP on human HSP90α-p23 binding; settings: 5 mM ATP
# T2 construct: made in house; host or cells: E. coli Rosetta2(DE3) pLysS
# Method: In this investigation, 1 µM HSP90-mNeonGreen was incubated with 2 µM Sba1-mScarlet-I in reaction buffer containing 5 mM ATP either alone (UC) or with the addition of 20 µM Sba1. As a negative control, samples containing 20 µM bovine serum albumin (BSA) were used.
# FRET experiments were carried out in 384-well microtiter plates (Art. No. 3766 Corning, NY, USA, or Art. No. 781906, Greiner Bio-One GmbH, Frickenhausen, Germany) containing a final volume of 20 µL and measured with a microplate reader Infinite M200Pro (Tecan, Männedorf, Switzerland). The fluorescence was measured in three channels: excitation (ex.): 488 nm/emission (em.): 525 nm (mNeonGreen fluorescence), ex.: 561 nm/em.: 610 nm (mScarlet-I fluorescence) and the FRET channel ex.: 488 nm/em.: 610 nm. The excitation and emission bandwidths were set to 9 and 20 nm, respectively. Experiments for the determination of the equilibrium dissociation constants were performed with a filter-based microplate reader Infinite F200Pro (Tecan, Männedorf, Switzerland). The fluorescence was measured in three channels using the following filters: ex.: 485 ± 20 nm/em.: 535 ± 20 nm (mNeonGreen channel), ex.: 535 ± 20 nm/em.: 612 ± 10 nm (mScarlet-I channel) and the FRET channel ex.: 485 ± 20 nm/em.: 612 ± 10 nm. FRET emission (EmFRET) was calculated according to Song et al. 2011 [81]:(1) EmFRET=FLDA−x×FLDD−(y×FLAA) where FLDA is the fluorescence signal of the FRET channel and FLDD and FLAA are fluorescence signals from the mNeonGreen and mScarlet-I channels, respectively. The correction factors x and y were calculated as follows:(2) x=FLDA/FLDD for samples containing only the donor fluorophore or fluorescent fusion proteins with mNeonGreen and (3) y=FLDA/FLAA for samples containing only the acceptor fluorophore or fluorescent fusion proteins with mScarlet-I in the same concentration as samples containing both the donor and acceptor.
# All experiments were carried out in reaction buffer (40 mM HEPES/KOH pH 7.5, 20 mM KCl, 5 mM MgCl2, 20 mM Na2MoO4, Triton-X 100 0.1%). HEPES and KCl were purchased from AppliChem, Darmstadt, Germany. KOH and MgCl2 were obtained from VWR Chemicals, Darmstadt, Germany. Na2MoO4 was from Merck, Darmstadt, Germany. Triton-X 100 was purchased from Serva, Heidelberg, Germany.
# For C. albicans Sba1 competition experiments for HSP90-mNeonGreen–Sba1-mScarlet-I binding, 1 µM HSP90-mNeonGreen and 1 µM Sba1-mScarlet-I were incubated with varying concentrations of Sba1 in a range of 0–25,000 nM (lowest non-zero concentration 12 nM) in reaction buffer containing 5 mM ATP. The experiment was performed twice in nonaplicates. For human p23 competition experiments for HSP90α-mNeonGreen–p23-mScarlet-I binding, 1 µM HSP90α-mNeonGreen and 1 µM p23-mScarlet-I were incubated with varying concentrations of p23 in a range of 0–50 000 nM (lowest non-zero concentration 23 nM) in reaction buffer containing 5 mM ATP. The experiment was performed twice in hexaplicates. […] The experiment was performed thrice in triplicates. […] The IC50,rel values were calculated using the equation log (inhibitor) vs. response-variable slope (four parameters) in GraphPad Prism 5. Ki values for inhibition of HSP90-mNeonGreen–Sba1-mScarlet-I/p23-mScarlet-I binding by non-labeled Sba1/p23 were calculated with One Site—Fit Ki in GraphPad Prism 5. […] The EC50,rel values were calculated using the log (agonist) vs. response-variable slope (four parameters) equation in GraphPad Prism 5.
substance,measurement,setting,value
"p23: unlabeled human HSP90 co-chaperone p23 (Q15185), His6-tagged",effect on HSP90 ATPase activity upon binding,[1],complete abrogation
same,hit identification (EmFRET/FLDD decrease of more than 3 SDs from binding control mean),[2],identified as hits
same,Kd,[3],1500 nM
same,effect on FRET emission (EmFRET) versus untreated control,"[4]; 20 µM added, 1 µM HSP90α-mNeonGreen, 2 µM p23-mScarlet-I",significant reduction in FRET emission
same,IC50,"[4]; donor and acceptor both 1 µM, read-out: relative IC50, inhibition of HSP90α-mNeonGreen–p23-mScarlet-I binding",1400 ± 200 nM
